# According to US20230381310A1:
# Target: human FcγRIIb (CD32B) (human) (UniProt P31994)
# Assay: cell-based or functional assay
# Sequence of UniProt P31994 (P31994 43-310): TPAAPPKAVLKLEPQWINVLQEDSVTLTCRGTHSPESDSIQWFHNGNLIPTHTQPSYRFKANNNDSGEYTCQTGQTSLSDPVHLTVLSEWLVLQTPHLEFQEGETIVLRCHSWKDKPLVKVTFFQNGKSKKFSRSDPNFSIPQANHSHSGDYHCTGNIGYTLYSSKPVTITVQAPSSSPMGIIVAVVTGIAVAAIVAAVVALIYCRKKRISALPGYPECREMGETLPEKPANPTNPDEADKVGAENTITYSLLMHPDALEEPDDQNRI
substance,measurement,value
rituximab F(ab')2 fragment,surface accessible CD20 after 6 h culture (CLL cells),40%
